Bridge positions count the residues as written; N and C are the ends. Ends that are not written are not given here. Peptide text beside a SMILES is read from it.
B1: alanine scan peptide … (peptide)
peptide: H-LPCDYYGTCAD-NH2
modifications: disulfide 3-9
SMILES: CC(C)C[C@H](N)C(=O)N1CCC[C@H]1C(=O)N[C@H]1CSSC[C@@H](C(=O)N[C@@H](C)C(=O)N[C@@H](CC(=O)O)C(N)=O)NC(=O)[C@H]([C@@H](C)O)NC(=O)CNC(=O)[C@H](Cc2ccc(O)cc2)NC(=O)[C@H](Cc2ccc(O)cc2)NC(=O)[C@H](CC(=O)O)NC1=O
B2: synthetic polypeptide … (peptide)
peptide: H-FACHYYGTCLH-NH2
modifications: disulfide 3-9
SMILES: CC(C)C[C@H](NC(=O)[C@@H]1CSSC[C@H](NC(=O)[C@H](C)NC(=O)[C@@H](N)Cc2ccccc2)C(=O)N[C@@H](Cc2c[nH]cn2)C(=O)N[C@@H](Cc2ccc(O)cc2)C(=O)N[C@@H](Cc2ccc(O)cc2)C(=O)NCC(=O)N[C@@H]([C@@H](C)O)C(=O)N1)C(=O)N[C@@H](Cc1c[nH]cn1)C(N)=O
B3: synthetic polypeptide … (peptide)
peptide: H-LPCSYYGTCLH-NH2
modifications: disulfide 3-9
SMILES: CC(C)C[C@H](NC(=O)[C@@H]1CSSC[C@H](NC(=O)[C@@H]2CCCN2C(=O)[C@@H](N)CC(C)C)C(=O)N[C@@H](CO)C(=O)N[C@@H](Cc2ccc(O)cc2)C(=O)N[C@@H](Cc2ccc(O)cc2)C(=O)NCC(=O)N[C@@H]([C@@H](C)O)C(=O)N1)C(=O)N[C@@H](Cc1c[nH]cn1)C(N)=O
B4: synthetic polypeptide … (peptide)
peptide: H-RPCDYYGTCFD-NH2
modifications: disulfide 3-9
SMILES: C[C@@H](O)[C@@H]1NC(=O)CNC(=O)[C@H](Cc2ccc(O)cc2)NC(=O)[C@H](Cc2ccc(O)cc2)NC(=O)[C@H](CC(=O)O)NC(=O)[C@@H](NC(=O)[C@@H]2CCCN2C(=O)[C@@H](N)CCCNC(=N)N)CSSC[C@@H](C(=O)N[C@@H](Cc2ccccc2)C(=O)N[C@@H](CC(=O)O)C(N)=O)NC1=O
B5: alanine scan peptide … (peptide)
peptide: H-LPCAYYGTCLD-NH2
modifications: disulfide 3-9
SMILES: CC(C)C[C@H](NC(=O)[C@@H]1CSSC[C@H](NC(=O)[C@@H]2CCCN2C(=O)[C@@H](N)CC(C)C)C(=O)N[C@@H](C)C(=O)N[C@@H](Cc2ccc(O)cc2)C(=O)N[C@@H](Cc2ccc(O)cc2)C(=O)NCC(=O)N[C@@H]([C@@H](C)O)C(=O)N1)C(=O)N[C@@H](CC(=O)O)C(N)=O
B6: alanine scan peptide … (peptide)
peptide: H-LPCDAYGTCLD-NH2
modifications: disulfide 3-9
SMILES: CC(C)C[C@H](NC(=O)[C@@H]1CSSC[C@H](NC(=O)[C@@H]2CCCN2C(=O)[C@@H](N)CC(C)C)C(=O)N[C@@H](CC(=O)O)C(=O)N[C@@H](C)C(=O)N[C@@H](Cc2ccc(O)cc2)C(=O)NCC(=O)N[C@@H]([C@@H](C)O)C(=O)N1)C(=O)N[C@@H](CC(=O)O)C(N)=O
B7: synthetic polypeptide … (peptide)
peptide: H-RPCNYYGTCLH-NH2
modifications: disulfide 3-9
SMILES: CC(C)C[C@H](NC(=O)[C@@H]1CSSC[C@H](NC(=O)[C@@H]2CCCN2C(=O)[C@@H](N)CCCNC(=N)N)C(=O)N[C@@H](CC(N)=O)C(=O)N[C@@H](Cc2ccc(O)cc2)C(=O)N[C@@H](Cc2ccc(O)cc2)C(=O)NCC(=O)N[C@@H]([C@@H](C)O)C(=O)N1)C(=O)N[C@@H](Cc1c[nH]cn1)C(N)=O
B8: alanine scan peptide … (peptide)
peptide: H-LACDYYGTCLD-NH2
modifications: disulfide 3-9
SMILES: CC(C)C[C@H](NC(=O)[C@@H]1CSSC[C@H](NC(=O)[C@H](C)NC(=O)[C@@H](N)CC(C)C)C(=O)N[C@@H](CC(=O)O)C(=O)N[C@@H](Cc2ccc(O)cc2)C(=O)N[C@@H](Cc2ccc(O)cc2)C(=O)NCC(=O)N[C@@H]([C@@H](C)O)C(=O)N1)C(=O)N[C@@H](CC(=O)O)C(N)=O
B9: Gd-DTPA-Gly[SEQ ID NO: 21] (peptide)
peptide: GWFHCPYDLCHIL
modifications: disulfide 5-10 (inferred); not fully specified (N-terminus); printed as Trp-Phe-His-Cys-Pro-Tyr-Asp-Leu-Cys-His-Ile-Leu; also: Gd(III) chelated by DTPA on N-terminal Gly

Each molecule was assayed against DD(E) soluble fibrin-derived polypeptide (UniProt P02671) (assay: Kd against DD(E) target). Details: not given.

| Molecule | Kd [µM] |
| --- | --- |
| HCPYDLCHIL | 3.8 |
| B1 | 10.1 |
| GFHCPYDLCHIL | 6.7 |
| H-LPCDYYGTCLD-NH2 (disulfide 3-9 (inferred)) | 2.6 |
| B2 | 7.3 |
| LPCDYXGTCLD (1-naphthyl residue (Nal) at position 6; C-terminal amide; N-terminus free) [substituted peptide LPCDYNalGTCLD] | 125 |
| B3 | 9.8 |
| B4 | 3.4 |
| H-PCDYYGTCL-NH2 (disulfide 2-8 (inferred)) [truncated peptide …] | 50 |
| WECPYGLCWI | 3.87 |
| B5 | 5.9 |
| LPCDYYXTCLD (not fully specified; D-alanine at position 7) [D-alanine peptide LPCDYYdATCLD] | 4.9 |
| H-CDYYGTC-NH2 (disulfide 1-7 (inferred)) [truncated peptide CDYYGTC] | 38 |
| H-LPCDYYGSCLD-NH2 (disulfide 3-9 (inferred)) | 26 |
| B6 | 4.5 |
| LPCDYYATCLD (C-terminal amide; N-terminus free) | 12.3 |
| WECPYGLCWIQ | 0.94 |
| B7 | 4 |
| ECPYGLCWIQ | 2.23 |
| B8 | 2.9 |
| H-LPCDYYGVCLD-NH2 (disulfide 3-9 (inferred)) | 28 |
| B9 | 2.9 |
| FHCPYDLCHIL | 0.41 |
| FHCPYDLCHI | 2 |
| H-CDYYGTCL-NH2 (disulfide 1-7 (inferred)) [truncated peptide CDYYGTCL] | 22 |

These molecules were tested against T1, DD(E) (Homo sapiens, UniProt P02671+P02675+P02679) (assay: dissociation constant against fibrin-derived polypeptide DD(E)). Details: cyclic peptides of Table 12; unit inferred; read-out: Kd against DD(E).
T1 construct: host or cells: purchased fibrinogen clotted with thrombin, digested with plasmin, then purified by ammonium sulfate cuts and Sephacryl S200
Assay type: binding
Protocol: The soluble fibrin-derived polypeptide DD(E) was prepared following a modification of a published method (Moskoitz and Budzynksi, Biochemistry, 33: 12937-12944 (1994) and references therein). Fibrinogen containing a Factor XIII trace impurity (1 g, Grade L; purchased from American Diagnostica) was dissolved in TBS buffer and dialyzed overnight against TBS containing 5 mM citrate. The fibrinogen concentration was adjusted to 3.0 mg/ml and CaCl2 was added to a concentration of 10 mM. Clotting of the fibrinogen was initiated by the addition of thrombin to 0.5 U/ml and the clot was incubated for 3 hours at 37° C. The clot was cut up with a spatula to release water and to concentrate the clot. The clot pieces were washed twice with TBS.Ca buffer (TBS containing 2 mM CaCl2) and were centrifuged at 4,000×g to compact the clots between washes. The clot material was resuspended in 250 ml TBS containing 25 mM CaCl2 and 2 K.I.U. plasmin per mg fibrin. The clots were digested overnight at 20° C. Undigested clot was removed by pipette, and the supernatant was shaken with 10 ml of Lysine Sepharose (Pharmacia) for 30 minutes and filtered to remove the resin. Aprotinin was added to the filtrate to a concentration of 500 U/μL. Ammonium Sulfate was added to 30% saturation and the precipitated protein was removed by centrifugation. More ammonium sulfate was added to the supernatant to a final concentration of 50% saturation, and the precipitated protein was concentrated by centrifugation. The pellets, containing DD(E), were resuspended in a small volume of buffer (50 mM Tris, 150 mM NaCl, 2 mM CaCl2) (<10 ml) and chromatographed on a Sephacryl S200 (Pharmacia) size exclusion column (5×100 cm) in the same buffer. Fractions of protein eluted from the column were assayed by SDS-PAGE for DD(E). DD(E) contains subunits of 55 kD (Fragment E) and 190 kD (Fragment DD). […]
Dissociation constants were determined against DD(E) as described above.

T1 sequence (P02671 130-216): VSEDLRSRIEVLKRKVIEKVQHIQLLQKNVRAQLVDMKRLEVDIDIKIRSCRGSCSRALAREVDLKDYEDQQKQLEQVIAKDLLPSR
T1 sequence (P02675 164-491): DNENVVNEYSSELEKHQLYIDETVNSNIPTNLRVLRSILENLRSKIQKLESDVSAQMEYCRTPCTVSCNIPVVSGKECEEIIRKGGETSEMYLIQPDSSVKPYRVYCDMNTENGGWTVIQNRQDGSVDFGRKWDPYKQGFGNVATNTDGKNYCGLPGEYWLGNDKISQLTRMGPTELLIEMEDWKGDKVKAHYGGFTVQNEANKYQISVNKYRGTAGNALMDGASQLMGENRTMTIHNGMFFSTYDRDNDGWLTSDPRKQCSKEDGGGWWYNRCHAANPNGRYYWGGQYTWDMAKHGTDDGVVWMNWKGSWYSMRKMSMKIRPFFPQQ
T1 sequence (P02679 114-432): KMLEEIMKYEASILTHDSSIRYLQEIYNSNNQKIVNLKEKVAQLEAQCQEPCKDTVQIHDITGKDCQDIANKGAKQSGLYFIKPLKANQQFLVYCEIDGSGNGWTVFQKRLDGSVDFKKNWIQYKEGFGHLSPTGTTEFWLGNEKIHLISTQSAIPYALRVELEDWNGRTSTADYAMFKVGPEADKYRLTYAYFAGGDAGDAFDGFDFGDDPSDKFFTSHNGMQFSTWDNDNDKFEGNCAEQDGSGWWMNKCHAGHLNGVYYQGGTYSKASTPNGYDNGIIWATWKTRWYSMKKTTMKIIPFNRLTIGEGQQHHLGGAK
T1 sequence (P02671 36-97): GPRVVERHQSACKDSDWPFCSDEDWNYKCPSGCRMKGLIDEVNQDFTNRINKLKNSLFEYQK
T1 sequence (P02675 45-152): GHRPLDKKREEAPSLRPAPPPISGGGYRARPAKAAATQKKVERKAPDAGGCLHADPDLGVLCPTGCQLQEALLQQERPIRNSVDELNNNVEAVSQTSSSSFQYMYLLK
T1 sequence (P02679 27-88): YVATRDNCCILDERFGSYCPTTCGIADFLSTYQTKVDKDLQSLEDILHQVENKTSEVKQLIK

| Molecule | Kd [µM] |
| --- | --- |
| C[C@@H](O)[C@@H]1NC(=O)CNC(=O)[C@H](Cc2ccc(O)cc2)NC(=O)[C@H](Cc2ccc(O)cc2)NC(=O)[C@H](CC(=O)O)NC(=O)CNC(=O)CNC1=O [(II)] (cyclo(GDYYGTG)) | > 500 |

Same assay, conditions: read-out: Kd DD(E)

| Molecule | Kd [µM] |
| --- | --- |
| CC[C@H](C)[C@H](NC(=O)[C@H](Cc1c[nH]cn1)NC(=O)[C@@H]1CSSC[C@H](NC(=O)[C@H](Cc2c[nH]cn2)NC(=O)[C@@H](N)Cc2ccccc2)C(=O)N2CCC[C@H]2C(=O)N[C@@H](Cc2ccc(O)cc2)C(=O)N[C@@H](CC(=O)O)C(=O)N[C@@H](CC(C)C)C(=O)N1)C(N)=O [SEQ ID NO: 60, FHCPYDLCHI] (H-FHCPYDLCHI-NH2; disulfide 3-8; N-terminus and C-terminus assumed) | 2 |

Same assay, conditions: sequences of phage isolates from TN10-9 and TN6-6 libraries (Table 5); read-out: Kd DD(E)

| Molecule | Kd [µM] |
| --- | --- |
| NHGCYNSYGVPYCDYS [compound 18] | 2.7 |

Reference: patent publication US20050261472A1, “Binding moieties for fibrin” (Dyax Corp., priority 1999, published 2005)
